In patent US20150072933A1, “NOVEL SEQUENCES FOR THE CONTROL OF REPRODUCTION IN FISH” (Yissum Research Development Company of the Hebrew …, priority 2011, published 2015):
“Also recorded” adds a separate entry of the source. *1 amine or outer side, *2 acyl side, *3 side chain or, on linkers, in order; H or OH if unused. Where a SMILES comes first, the peptide text is derived from it. Where no end group is shown, it is not given here. [ ]: non-standard residue; d: D form. Suc = O=C(CCC(=O)[*:2])[*:1]; NMeV = CN[C@H](C(=O)O)C(C)C

T1: human NK3R (human NKB receptor) (human, UniProt P29371 1-465)
T1 sequence (looked up): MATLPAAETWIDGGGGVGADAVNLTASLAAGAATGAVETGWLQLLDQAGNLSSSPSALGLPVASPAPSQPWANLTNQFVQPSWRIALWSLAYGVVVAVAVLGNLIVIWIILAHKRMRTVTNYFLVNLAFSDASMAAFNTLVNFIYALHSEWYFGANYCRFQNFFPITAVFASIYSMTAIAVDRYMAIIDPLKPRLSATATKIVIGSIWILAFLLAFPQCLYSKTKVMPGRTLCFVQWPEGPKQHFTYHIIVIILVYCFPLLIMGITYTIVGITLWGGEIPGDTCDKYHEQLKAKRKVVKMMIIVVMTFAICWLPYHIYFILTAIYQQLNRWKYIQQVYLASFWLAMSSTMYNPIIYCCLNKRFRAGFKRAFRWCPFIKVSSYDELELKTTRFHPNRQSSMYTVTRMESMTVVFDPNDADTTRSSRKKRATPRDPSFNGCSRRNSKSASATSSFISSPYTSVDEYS

T2: zebrafish Tac3rb (tac3 receptor b, NKB receptor) (zebrafish)
T2 chain: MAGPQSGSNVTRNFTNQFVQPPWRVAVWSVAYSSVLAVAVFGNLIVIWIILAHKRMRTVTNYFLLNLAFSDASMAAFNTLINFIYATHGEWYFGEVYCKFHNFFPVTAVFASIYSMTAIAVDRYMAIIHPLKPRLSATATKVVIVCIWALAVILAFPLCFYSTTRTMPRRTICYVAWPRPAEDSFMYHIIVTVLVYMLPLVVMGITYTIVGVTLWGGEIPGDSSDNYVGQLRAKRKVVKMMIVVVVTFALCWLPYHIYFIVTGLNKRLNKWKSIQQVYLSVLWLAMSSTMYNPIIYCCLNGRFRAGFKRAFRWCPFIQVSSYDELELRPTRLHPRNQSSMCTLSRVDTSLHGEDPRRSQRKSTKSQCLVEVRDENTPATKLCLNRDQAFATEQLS

T3: zebrafish Tac3ra (tac3 receptor a, NKB receptor) (zebrafish)
T3 chain: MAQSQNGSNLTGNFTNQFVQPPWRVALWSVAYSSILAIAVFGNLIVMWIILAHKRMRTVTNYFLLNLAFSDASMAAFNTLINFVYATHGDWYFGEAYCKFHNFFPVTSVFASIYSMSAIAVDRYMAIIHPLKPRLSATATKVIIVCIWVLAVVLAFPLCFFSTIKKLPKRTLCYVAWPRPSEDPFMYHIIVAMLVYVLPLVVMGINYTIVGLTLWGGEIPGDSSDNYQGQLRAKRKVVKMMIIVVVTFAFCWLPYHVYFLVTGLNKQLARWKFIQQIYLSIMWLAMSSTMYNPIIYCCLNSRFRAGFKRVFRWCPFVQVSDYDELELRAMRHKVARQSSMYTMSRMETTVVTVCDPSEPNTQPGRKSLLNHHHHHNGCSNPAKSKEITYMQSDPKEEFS


Experiments:
[1] = test system: zfTac3rb; assay: Receptor transactivation assay, CRE-Luc reporter (PKA activation), COS-7 cells expressing zfTac3rb; assay type: cell-based, zebrafish; conditions: Table 6 (native peptides and analogues), PKA activation, mean ± SEM, read-out: EC50 using CRE-Luc, zfTac3rb
Procedure: (§1) In order to study the signaling pathways of the novel zebrafish NKBs, the entire coding regions of zftac3ra (denoted by SEQ ID NO:6) or zftac3rb (denoted by SEQ ID NO:7), or the cDNA clone for human NK3R (obtained from the Missouri S&T cDNA Resource Center, were inserted into pcDNA3.1 (Invitrogen). The luciferase assay was conducted according to Biran et al., 2008 [4] COS-7 cells were grown in DMEM supplemented with 10% FBS, 1% glutamine, 100 U/ml penicillin, and […] streptomycin (Biological Industries) under 5% CO2 until confluent. Cotransfection of either pc-zftac3ra, pc-zftac3rb or pc-Htac3r (at 3 μg/plate), a reporter plasmid (at 2 μg/plate), and pCMV-β-galactosidase (at 1 μg/plate) was carried out with FuGENE 6.0 reagent (Roche). The cells were serum starved for 36 h, stimulated with vehicle or various concentrations of either human (Sigma) or zebrafish NKBs for 6 h, and then harvested and analyzed. Lysates prepared from the harvested cells were assayed for both luciferase activity and β-galactosidase activity, which was used as an internal standard to normalize the luciferase activity directed by the test plasmid. Transfection experiments were performed in triplicate with three independently isolated sets. Protein structure prediction of zebrafish NKBa, NKBb or NKF were performed on I-Tasser servers.
(§2) The response, binding selectivity and signal transduction pathways of the novel tachykinin receptors to their agonists were evaluated by functional expression analysis, using COS-7 cells.
(§3) The NKB analogues (i.e. the NKBa-analog, NKBb-analog and NKF-analog, as denoted by SEQ ID NO. 44-46) were first analyzed in comparison to their native forms in a transactivation assay, using reporter genes for specific signal transduction pathways. To validate the specificity of the serum-responsive element (SRE)-Luc and cAMP-responsive element (CRE)-Luc reporter systems, specific activators for PLC/PKC and AC/PKA signaling pathways were used in control experiments.
(§4) Thus, the ability of the three novel piscine peptides (namely, NKBa, NKBb and NKF, denoted by SEQ ID NO.40, 41 and 42), as well as the ability of the three analogous agonistic peptides, namely, NKBa-analog, NKBb-analog and NKF-analog, to differentially activate the different tac3 receptors, using SRE as a reporter gene that follows PKC activation and CRE as a reporter gene for the PKA pathway, was tested. Human NK3R (human NKB receptor) and human NKB served as controls.

[2] = test system: zfTac3ra; assay: Receptor transactivation assay, CRE-Luc reporter (PKA activation), COS-7 cells expressing zfTac3ra; assay type: cell-based, zebrafish; conditions: Table 6 (native peptides and analogues), PKA activation, mean ± SEM, read-out: EC50 using CRE-Luc, zfTac3ra
Procedure: as §1, §2, §3, §4

[3] = test system: zfTac3ra; assay: Receptor transactivation assay, SRE-Luc reporter (PKC activation), COS-7 cells expressing zfTac3ra; assay type: cell-based, zebrafish; conditions: Table 7 (native peptides and analogues); PKC activation; mean ± SEM; read-out: EC50 using SRE, zfTac3ra
Procedure: as §1, §2, §3, §4

[4] = test system: zfTac3rb; assay: Receptor transactivation assay, SRE-Luc reporter (PKC activation), COS-7 cells expressing zfTac3rb; assay type: cell-based, zebrafish; conditions: Table 7 (native peptides and analogues); PKC activation; mean ± SEM; read-out: EC50 using SRE, zfTac3rb
Procedure: as §1, §2, §3, §4

[5] = test system: Mature female carp; assay: Gonadotropin release from mature carp in vivo (LH by ELISA); conditions: mature female carp just before spawning, injected 20 μg/kg body weight; listed as NKBb analogue
Procedure: Mature female carp, just before spawning, were injected with NKBa, NKBb and NKF analogues, denoted by SEQ ID NO.44, SEQ ID NO.45 and SEQ ID NO.46, respectively (20 μg/kg body weight). LH levels was measured by specific ELISA, according to Aizen et al. 2012 [33].

[6] = molecular target: T1, human NK3R (human NKB receptor); assay: cell-based or functional assay
[7] = molecular target: T2, zebrafish Tac3rb (tac3 receptor b, NKB …); assay: cell-based or functional assay
[8] = molecular target: T3, zebrafish Tac3ra (tac3 receptor a, NKB …); assay: cell-based or functional assay
[9] = molecular target: T1, human NK3R (human NKB receptor); assay: cell-based or functional assay; remark: listed apart in the source
[10] = molecular target: T2, zebrafish Tac3rb (tac3 receptor b, NKB …); assay: cell-based or functional assay
[11] = molecular target: T3, zebrafish Tac3ra (tac3 receptor a, NKB …); assay: cell-based or functional assay
[12] = molecular target: T1, human NK3R (human NKB receptor); assay: cell-based or functional assay; remark: listed apart in the source
[13] = molecular target: T2, zebrafish Tac3rb (tac3 receptor b, NKB …); assay: cell-based or functional assay
[14] = molecular target: T3, zebrafish Tac3ra (tac3 receptor a, NKB …); assay: cell-based or functional assay

EC50 ([1]; listed as NKBb-analog) [nM]	EC50 [1] [nM]	EC50 ([2]; listed as NKBb-analog) [nM]	EC50 [2] [nM]	EC50 [3] [nM]	EC50 [4] [nM]	EC50, CRE-Luc reporter (PKA activation), transfected COS-7 cells [6] [nM]	EC50, SRE-Luc reporter (PKC activation), transfected COS-7 cells [6] [nM]	EC50, CRE-Luc reporter (PKA activation), transfected COS-7 cells [7] [nM]	EC50, SRE-Luc reporter (PKC activation), transfected COS-7 cells [7] [nM]	EC50, CRE-Luc reporter (PKA activation), transfected COS-7 cells [8] [nM]	EC50, SRE-Luc reporter (PKC activation), transfected COS-7 cells [8] [nM]	EC50, CRE-Luc to follow PKA activation, transfected COS-7 cells [9] [nM]	EC50, CRE-Luc to follow PKA activation, transfected COS-7 cells [10] [nM]	EC50, CRE-Luc to follow PKA activation, transfected COS-7 cells [11] [nM]	EC50, SRE reporter gene that follows PKC activation, transfected COS-7 cells [12] [nM]	EC50, SRE reporter gene that follows PKC activation, transfected COS-7 cells [13] [nM]	EC50, SRE reporter gene that follows PKC activation, transfected COS-7 cells [14] [nM]	Molecule	LH level [5]
2.2	2.18 ± 1.34	1.7	1.68 ± 1.21	0.06	0.23													CSCC[C@H](NC(=O)[C@H](CC(C)C)NC(=O)CNC(=O)[C@H](C(C)C)N(C)C(=O)[C@H](Cc1ccccc1)NC(=O)[C@H](CC(=O)O)NC(=O)CCC(=O)O)C(N)=O [zfNKBb-analog, Succ-Asp-Phe-N(Me)Val-Gly-Leu-Met-NH2] (Suc-DF[NMeV]GLM-NH2)	significant elevation; also recorded: increased the level of LH significantly
						4.36	0.52	1.8	0.36	4.94	0.54	4.36	1.8	4.94	0.52	0.37	0.55	YNDIDYDSFVGLM-NH2 [Zebrafish Tac3f peptide, neurokinin F (YNDIDYDSFVGLM-NH2)]	
